{"source": "paper PMC7513463", "about": "(Nature, 2020)", "binders": {"B1": {"name": "PA0626 ripcord protein of pyocin R2 (natural protein, Pseudomonas aeruginosa PAO1, UniProt G3XD65 1-290, looked up)", "chain": "MAYLEQLQAGLRYLGRAGESGRKSLDKVVAPVNGAISEIRGAAAELENLPGVSPEMAARLQRAMRGIGQAQGKVNRVVSTYDRASRALLGIDERLDALKVQVNSAAQAVGKVAGDISPTLAGVLPSWLLAPSATPPSEAAASLPHLLVLQPLTANAQPFYFNLNTAAFDALQRNSAYNWSGQVRLGRRPALQSVGMGEESILLKGAVFPLRRQVGNQEKVVGLEQLEALRRLAERREPLILSSGYGEVQMGLWCLVRISENQSALLGNGAPRKQTFDLEFKRYGDDLPNR"}, "B2": {"name": "PA0623 tube protein of pyocin R2 (natural protein, Pseudomonas aeruginosa PAO1, UniProt Q9I5S9 1-167, looked up)", "chain": "MIPQTLTNTNLFIDGVSFAGDVPSLTLPKLAVKTEQYRAGGMDAPVSIDMGLEAMEAKFSTNGARREALNFFGLADQSAFNGVFRGSFKGQKGASVPVVATLRGLLKEVDPGDWKAGEKAEFKYAVAVSYYKLEVDGREVYEIDPVNGVRAINGVDQLAGMRNDLGL"}, "B3": {"name": "PA0622 sheath protein of pyocin R2 (natural protein, Pseudomonas aeruginosa PAO1, UniProt G3XD39 1-386, looked up)", "chain": "MSFFHGVTVTNVDIGARTIALPASSVIGLCDVFTPGAQASAKPNVPVLLTSKKDAAAAFGIGSSIYLACEAIYNRAQAVIVAVGVETAETPEAQASAVIGGISAAGERTGLQALLDGKSRFNAQPRLLVAPGHSAQQAVATAMDGLAEKLRAIAILDGPNSTDEAAVAYAKNFGSKRLFMVDPGVQVWDSATNAARNAPASAYAAGLFAWTDAEYGFWSSPSNKEIKGVTGTSRPVEFLDGDETCRANLLNNANIATIIRDDGYRLWGNRTLSSDSKWAFVTRVRTMDLVMDAILAGHKWAVDRGITKTYVKDVTEGLRAFMRDLKNQGAVINFEVYADPDLNSASQLAQGKVYWNIRFTDVPPAENPNFRVEVTDQWLTEVLDVA"}, "B4": {"name": "PA0615 collar protein of pyocin R2 (natural protein, Pseudomonas aeruginosa PAO1, UniProt G3XD82 1-171, looked up)", "chain": "MPEQAVTLEALYAAIEQVLRERLPEAQLIGFWPGVPENTPAVSLEIAELLPERDPGTGESALLCRLQARIMVPPGADRQAVSIACGIVRTLREQTWNLSLQPARFVRSAVDGSREELKSLRVWLVEWTQSLRLGDPEWAWEDQPPGSLMLGFDPQTGPGHEPDYFAPEALA"}, "B5": {"name": "PA0619 (Tri2) triplex protein of pyocin R2 (natural protein, Pseudomonas aeruginosa PAO1, UniProt G3XD92 1-177, looked up)", "chain": "MSSRLLPPNRSSLERSLGDVLPAELPVPLRELHDPARCEAALLPYLAWTRSVDRWDPDWSDEAKRNAVATSFVLHQRKGTLTALRQVVEPIGALSEVTEWWQRSPTGVPGTFEITVDVSDRGIDEGTVLELERLLDDVRPVSRHLTRLDLRITPVIRSRHGLAVTDGDTLEIFPWKQ"}, "B6": {"name": "PA0616 central spike protein of pyocin R2 (in the native particle) (natural protein)", "chain": "MSYVSAEHDRMLAAMILPCVVVAVDLAAARVRVRSGDWTSGWLRWHSLAAGKVRHWRAPSIGEQGVLLSPSGGVSMGTFIPGLYGDAGTAPDNSASSETWRFDDGASLSYDWAAHRYRVELPSGTVEVRVGASEVRVSDGAVSLKAPKISLEGPVEIAGTLTVSGDILGGGSIIDTAGNSNHHTH"}, "B7": {"name": "PA0616 central spike protein, full length, recombinant (natural protein)", "chain": "B6 chain"}, "B8": {"name": "PA0617 sheath initiator protein of pyocin R2 (natural protein, Pseudomonas aeruginosa PAO1, UniProt G3XD42 1-108, looked up)", "chain": "MIGMDRRSGLPLSGLAHLKQSVEDILTTPLGSRRMRPEYGSKLRRMVDMPVSEGWKSAVQAEVARSLGRWEPRIGLSAVRVVAVVDGRVDLLLSGVFEGENINMEVSA"}, "B9": {"name": "PA0618 (Tri1) triplex protein of pyocin R2 (natural protein, Pseudomonas aeruginosa PAO1, UniProt G3XCX5 1-295, looked up)", "chain": "MIIDLSQLPEPEVIENLDFETIYQELLGDFREAMAGEWTAEVESDPVLKLLQLAAYRELLLRARINDAARAVMLAYASGADLDQIGAGFNVQRLLIRPAQPEAVPPVEAQYESDKSLRNRIQLAFEQLSVAGPRNAYIAHALGADGRVADASATSPAPCEVLISVLGVEGNGQAPEAVLQAVRLALNAEDVRPVADRVTVRSAGIVPYQVKAQLYLFPGPEAELIRAAAEASLRDYISAQRRLGRDIRRSALFATLHVEGVQRVELQEPAADVVLDETQAAYCTGYAITLGGVDE"}, "B10": {"name": "PA0628 hub protein of pyocin R2 (natural protein, Pseudomonas aeruginosa PAO1, UniProt G3XCU8 1-329, looked up)", "chain": "MQPSFRIVADGTDVTQRLNDRLLKLTLLDKPGMESDSLTLRIDDRDGQVALPRRGAVLEVHLGYAGEPLMRMGRFTVDTLQWAGPPDCLTVTAKAGDMRGSGKTIRSGGWEGTTLAQVCRDVGARNGWRVECPLQVAIARVDQVNESDYHFVTRLARQYDCTAKLAEGMLMVLPRQSGQSATGRRIEPLVLGRADVGSFDVTFDDRSLMRTVKTRYQLPGSGEVKSVELKNPKAPATAMGEHVDRHLYTSRGEAEQAAKARLASFSRSSASVRLELPGRGDLFAERSLLLQGFKAGIDGEFLIDSVEHTYSSSGWTTVVQCNGGRGGKG"}}, "key": {"[1]": {"target": "B10", "test": "cryo-EM structure"}, "cryo-EM structure [2]": {"target": "the molecule itself", "test": "cryo-EM structure"}, "cryo-EM structure [3]": {"target": "the molecule itself", "test": "cryo-EM structure", "remark": "listed apart in the source"}, "[4]": {"target": "B3", "test": "cryo-EM structure"}, "[5]": {"target": "B9", "test": "cryo-EM structure"}, "crystal structure": {"target": "the molecule itself", "test": "crystal structure"}, "[6]": {"target": "B3", "test": "cryo-EM structure", "remark": "listed apart in the source"}, "[7]": {"target": "B5", "test": "cryo-EM structure"}}, "note": "Read-outs that look alike come from different tables or passages of the source.", "data": [{"binder": "B1", "values": [{"measurement": "binding result", "setting": "[1]", "result": "binds"}, {"measurement": "stoichiometry N", "setting": "cryo-EM structure [2]", "result": 6}]}, {"binder": "B2", "values": [{"measurement": "stoichiometry N", "setting": "cryo-EM structure [2]", "result": 6}]}, {"binder": "B3", "values": [{"measurement": "binding result", "setting": "cryo-EM structure [3]", "result": "binds"}]}, {"binder": "B4", "values": [{"measurement": "stoichiometry N", "setting": "cryo-EM structure [2]", "result": 6}, {"measurement": "binding result", "setting": "[4]", "result": "binds"}]}, {"binder": "B5", "values": [{"measurement": "binding result", "setting": "[5]", "result": "binds"}]}, {"binder": "B6", "values": [{"measurement": "stoichiometry N", "setting": "cryo-EM structure [2]", "result": 3}]}, {"binder": "B7", "values": [{"measurement": "stoichiometry N", "setting": "crystal structure", "result": 3}]}, {"binder": "B8", "values": [{"measurement": "binding result", "setting": "[6]", "result": "binds"}]}, {"binder": "B9", "values": [{"measurement": "stoichiometry N", "setting": "[7]", "result": 2, "unit": "PA0618 per PA0619"}, {"measurement": "stoichiometry N", "setting": "cryo-EM structure [2]", "result": 2}]}, {"binder": "B10", "values": [{"measurement": "stoichiometry N", "setting": "cryo-EM structure [2]", "result": 3}]}]}
